The nanobody polyreactivity screen of Harvey et al. (2022)

Assay: yeast display, Sf9 membrane polyspecificity reagent, FACS + sequencing; frameworks hold sequencing errors
Summary of the method: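 Sorting gates, low and high (top ~1%), were placed on anti-HA fluorescence to track expression and on streptavidin fluorescence to track reagent binding. A clone's polyreactivity label is taken from the gate it came out of. The reagent was 10% biotinylated, detergent-solubilized Sf9 membrane, applied for 1 hour at 4 °C to galactose-induced yeast display cells.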

| Sequence | polyreactivity (PSR sort gate) |
| --- | --- |
| QVQLVESGGGLVQAGGSLRLTCAASGRTFGDNAMGWYRQAPWKERELVAAITSGASTYYADAVKGRFTISRDNAMNTVYLQMNSLKPEDTAVYYCADDQGDWNGYGFDYWGQGTQVTVSS | low polyreactivity |
| QVQLVESGGGLVQAGGSLRLTCAASGRTFGYYTMGWYRQAPGKERELVATISSDGTTNYADSVKGRFTISRDNAKNTVYLQMNSLKPEDTAVYYCNADFRLQYYYRIYDYWGQGTQVTVSS | low polyreactivity |
| QVQLVESGGGLVQAGGSLRLTCAASGRTFKFNAMGWDRQAPGKERELVAGITWTGSTTSYADSVKGRFTISRDNAKNTVYLQMNSLKPEDTSVYYCAADKIRFWYHGFYYRGQGTQVTVSS | low polyreactivity |
| QVQLVESGGGLVQAGGSLRLTCAASGRTFNIYAMGWYRQAPGKERELVAAITSGGSTNYADSVKGRFTISRDNAKNTVYLQMNSLKPEDTAVYYCNARYFRGYDYWGQGTQVTVSS | high polyreactivity |
| QVQLVESGGGLVQAGGSLRLTCAASGRTFPSYTMGWYRQAPGKERELVAAITWSGGSTYADSVKGRFSISRDNAKNTVYLQMKSLKPEDSAVYYCNAPIIAYDDGGSLVRYGRGDYWGQGTQVTVSS | low polyreactivity |
| QVQLVESGGGLVQAGGSLRLTCAASGRTFRGYVKAWSRQAPGKERELVAAISWSGGSTYYADSVKGRFTISRDNAKNSVYLQMKSLKPEDTAVYYCAARRYSYVGGQGSDYWGQGTLVTVSS | high polyreactivity |
| QVQLVESGGGLVQAGGSLRLTCAASGRTFRVYAMGWYRQAPGKERELVATITSSGGSTYYADSVKGRFTISRDNAKKTVYLQMNSLKREDTAVYYCNVSVYYNYDSSYDYWGQGTQVTVSS | low polyreactivity |
| QVQLVESGGGLVQAGGSLRLTCAASGRTFSKYAMGWYRQATGKERELVAAITSGGGTYYADSVKGRFTISRDNAKNTVYLQMNSLNPEDTAVYYCAVSVTTVSTYDYWGQGTQVTVSS | low polyreactivity |
| QVQLVESGGGLVQAGGSLRLTCAASGRTFTLNAMGWYRQAPGKERELVADIRRRGGSTYYADSVKGRFTISRDNAKNTVYVQMNSRKAADTAVYYCATHGRWYKLPTGWRPYDYWGLGTQVTVSS | high polyreactivity |
| QVQLVESGGGLVQAGGSLRLTCAASGRTFVTNAMGWYRQAPGKERELVAAISWSGGDTYYADSVKGRFTISRDNAKYTVYLEMNSLKPEDTAVYYCAAYFWGVYFFGMDYWGQGTLVTVSS | low polyreactivity |
| QVQLVESGGGLVQAGGSLRLTCAASGRTFYINAMGWYRQAPGKERELVAAISSGGSTNYADSVKGRFTISRDNAKNTVSLQMNSLKPEDTAVYYCNARLRSFTLSDAEYEYWGQGTQVTVSS | low polyreactivity |
| QVQLVESGGGLVQAGGSLRLTCAASGRTLRLYPMGWYRQAPGKERELVAAISRSGSSTYADSVKGRFTISRDNAKNTVYLQMYSLKPEDTAVYYCNAYQPRYGYWGQGTQVTVSS | high polyreactivity |
| QVQLVESGGGLVQAGGSLRLTCAASGSIFCAYTMGWSRQAPGKECDLVAAISASGGSTYYADSVKGRFTISRDNAKNTVYLQMNSLNPDDTAVYYCAAVYDLGYYGPIWAIVLDDYWGQGTQVTVSS | low polyreactivity |
| QVQLVESGGGLVQAGGSLRLTCAASGSIFDFYAMGRYRQAPGQERELVAAISGSGGSTYYADSVKGRFTISRDNGKNTVYFQMDSLKPEDTAVYYCSYYYWGQGTQVNVSS | low polyreactivity |
| QVQLVESGGGLVQAGGSLRLTCAASGSIFFDYGMGWYRQAPGKERELVATITRGTGSTYYADSVKGRFTISRDNAKNTVSLQMNSLKPEDTAVYYCAESYSYYNSYDYWGQGTQVTVSS | high polyreactivity |
| QVQLVESGGGLVQAGGSLRLTCAASGSIFGNAMGWYREAPGKEREIVAAISSSGSSTYYADSVKGRFTMSRDTAKNTVYLQMNSLKPADTAVYYCNKGSRRYHGYDYWGQGTQVTVSS | high polyreactivity |
| QVQLVESGGGLVQAGGSLRLTCAASGSIFKTNAMGWYRQAPGKERELVAAIRASGGSTYYADSVKGRFTISRDNAKNTVYLQMNSLKPEDTAVYYCAARYWFKYYWGQGTQVTVSS | low polyreactivity |
| QVQLVESGGGLVQAGGSLRLTCAASGSIFSYYAMGWYRQAPGKERELVADISFTGDSTFYADSVKGRFTISRDNAKNTVYLQMNSLKPEDTADYYCAKDEIMAVYFEYDYWGQGTQVTVSS | low polyreactivity |
| QVQLVESGGGLVQAGGSLRLTCAASGSIFWGYALGWYRQAPGKERELVATIRNRGGSTYYADSVKGRFTISRDNAKNTVYLQMNSLKPEDTAVYYCAADEGGFWWTYPYDSWGQGTQVTVSS | low polyreactivity |
| QVQLVESGGGLVQAGGSLRLTCAASGSIFYAYAMGWYRQAPGKERELVAAISGRGGSTYYADSVTGRFTISRDNAKKTVYFQMNSLKPEDTAVYYCAAERRTFYGLGVHYWGQVTQVTVSS | high polyreactivity |
| QVQLVESGGGLVQAGGSLRLTCAASGSIFYRNAMGLYRQAPGKEMELVADISWSGSSTYADSVKGLFTISRDNAKYTVYLHMNTLKPEDTAVYYCAAGGHYYSSPGYNYWGQGTQVTVSS | high polyreactivity |

| Sequence | polyreactivity (PSR sort gate) |
| --- | --- |
| QVQLVESGGGLVQAGGSLRLTCAASGSIFYYNAKGWYRQAPAKERELVATITQTGGSTYYADSVKARFTISRDNAKNTVYLQMNSLKPEDTAVYYCASDYFPYEYDYWGQGTQVTVSS | low polyreactivity |
| QVQLVESGGGLVQAGGSLRLTCAASGSIVQVYPMVWYRQEPGKEREFVAAISYSGGGTYYADSVKGRFTISRDIAKNTVYLQMNILKPEDTAVYYCAADVSAWEEDIWRQGTQVTVSS | low polyreactivity |
| QVQLVESGGGLVQAGGSLRLTCAASGSIYGVYAMGWSIQGPGKEREWVAVISWNGGRTYYADSVKGRFTISRDNAKNTVYLQMNSLKPEDTAVYYCAADTSYRYRDYHVDYWGQGTQVTVSS | high polyreactivity |
| QVQLVESGGGLVQAGGSLRLTCAASGSTFGWYTKGWYRQAPGKERELVAAISSGGSTYYADSVKGRFTISRDNAKNTVYLQMNSLKPEDTAVYYCNAKVPSSYSYYSYYEYDYWGQGTQVTVSS | low polyreactivity |
| QVQLVESGGGLVQAGGSLRLTCAASGSTFSKNGMGWYRQAPGKEREFVAAISGSGGSTYYADSVRGRFTISRDNAKNTVYLQMNSLKPEDTAVYYCAARRVWYYISAYGYWGQGTQVTVSS | high polyreactivity |
| QVQLVESGGGLVQAGGSLRLTCAASGSTFSPYAMGWYRQATGKERELVAAISASGGGTYYADSVKGRFTISRDYAKNTVYLQMNRLIPVDTAVYYCARDYGWDISKGRYGYWGQGTQVTVSS | low polyreactivity |
| QVQLVESGGGLVQAGGSLRLTCAASGSTFTRYAMGWYRQAPGKERELVATIIFSGDRTYYADSVKGRFTISRDNAKNTVYLEMNSLKPEDTAVSYCNKYRYQWPYRRFDYWGQGTQVTVSS | high polyreactivity |
| QVQLVESGGGLVQAGGSLRLTCAASGSTFVRYAMGWYRQAPGKERELVATIRRVGSTNYADSVKGRFTISRDNAKNTVYLQMNSLKPEDTEVYYCAARSLRYGRGMYYWGQGTQVTVSS | high polyreactivity |
| QVQLVESGGGLVQAGGSLRLTCAASGSTFVRYVMGWYRQAPGKERELVAAISRRGGSTYYADSVKGRFTISRDNANNTVYLQMNSLKPEDTAVYYCARTVGYRTLLESDSWGQGTQVTVSS | high polyreactivity |
| QVQLVESGGGLVQAGGSLRLTCAASGSTFYSNAMGWYRQAPGKERYLVAAITSRGDRTYYADSVKGRFTISRDNAKNTVYFQLNSLNPEDTAVYSCAAEQSWQGYAYYYWGQGTQVTVSS | high polyreactivity |
| QVQLVESGGGLVQAGGSLRLTCAASGSTFYSYTMGWYRQAPGKERELVAVISSSGGRTYYADSVKGRFTISRDNAKNTVYFQMNSLKPEDTAVYYCAASQRGYFDYRLWSFRSDSWGQGTQVTVSS | high polyreactivity |
| QVQLVESGGGLVQAGGSLRLTCAASGSTSGQNAMGRYRQAPGNERELVAAISSSAGSTYADSVKGRFTISRDNAKNTVYLQMNSLKPEDTAVYYCNVPYYYTRGSYGYWGQGTQVTVSS | low polyreactivity |
| QVQLVESGGGLVQAGGSLRLTCAASGSTYYSYAMGWYRQATGKERELVAAITSRGDRTYYADSVQGRFTISRDNAKNTVYLQMNSLKPEDTAVYYCAAEQSWQGYAYYYCGQGTQVTVSS | high polyreactivity |
| QVQLVESGGGLVQAGGSLRLTCAASGYIFSTYAMGSYRQAPGKERELVASISENGGSTYYADSVKGRFTISRDNAKNTVYLQMNSLKPEDTAVDYCNADAYVDVDDGDYWGEGTQVTVSS | low polyreactivity |
| QVQLVESGGGLVQAGGSLRLTCAASGYIFYRYALGWYRKAPGKERELVAAINSGGSTYYADSVKGRFTISRDNAKNTVYLQMNSLKPEDTAVYYCNVLGWWHVWVYDYWGQGTQVTVSS | high polyreactivity |
| QVQLVESGGGLVQAGGSLRLTCAASGYIIDWNTMVCYRHEPGKERELVAAITESSGSTYYADSVKGRFTISRDNAKNTVYLQMNSLKPEDTAVYYCAAELDVFVSICSRFHFEYWGQGTQVTVSS | low polyreactivity |
| QVQLVESGGGLVQAGGSLRLTCAASGYKFKSNVMGWYRQAPGKERELVAAISWSGGRTYYADSLKGRFTISRDNAKNTVYLQMNSLKPEDTAVYYCAAVGRQSNYYVDYDYWGQGTQVTVSS | high polyreactivity |
| QVQLVESGGGLVQAGGSLRLTCAASGYTFRAYVMGWYRQAPGKERELVAGITRRGGTTYYADSVKGRFTISRYNAKNTVYLQMNSLKPEDTAVYYCNAVYRSGSIPYDSWGQGTQVTVSS | high polyreactivity |
| QVQLVESGGGLVQAGGSLRLTCAASGYTFVLNALGWYRQAPGKEREFVAAITWSGGSTYYADSVKGRFTISRDNAKNTVYLQMNSLKAEDTAVYYCAADPDSGQVPFDYWGQGTQVTVSS | low polyreactivity |
| QVQLVESGGGLVQAGGSLRLTCAASGYTFYPYAMGWYRQAPGKERELVAAISWSGGSTYYADSVKGRFTISRDNAKNTVYLQMNSLKPEDTAVYYCNADSGWFGYDYWGKGTQVTVSS | low polyreactivity |
